From patent publication US20250145711A1 (Janssen / Centocor, published 2025)
Changes are numbered by the printed parent chain.

B1: CD3B2035 (scFv)
scFv: QVQLVQSGAEVKKPGSSVKVSCKASGYTFTRSTMHWVKQAPGQGLEWMGYINPSSAYTNYNQKFQGRVTLTADKSTSTAYMELSSLRSEDTAVYYCASPQVHYDYNGFPYWGQGTLVTVSSGGSEGKSSGSGSESKSTGGSEIVLTQSPATLSASPGERVTLSCSASSSVSYMNWYQQKPGQAPRRWIYDSSKLASGVPARFSGSGSGRDYTLTISSLEPEDFAVYYCQQWSRNPPTFGGGTKVEIK
B2: CD3B2031 (scFv)
scFv: B1 scFv with Q182T
B3: CD3B2041 (scFv)
scFv: B1 scFv with K38R, M48I, Q182T
B4: CD3B2066 (scFv)
scFv: B1 scFv with K38R, Q182T, A183S
B5: CD3B2075 (scFv)
scFv: B1 scFv with K38R, M48I, N61A, A183S, W187L
B6: CD3B2083 (scFv)
scFv: B1 scFv with K38R, N61A, A183S, W187L
B7: CD3B2084 (scFv)
scFv: B1 scFv with K38R, N61A, W187L
B8: CD3B2037 (scFv)
scFv: B1 scFv with N61A, Q182T, A183S, W187L
B9: CD3B2060 (scFv)
scFv: B1 scFv with M48I, N61A, W187L
B10: CD3B2076 (scFv)
scFv: B1 scFv with K38R, M48I, N61A, W187L
B11: CD3B2043 (scFv)
scFv: B1 scFv with K38R, M48I, Q182T, W187L
B12: CD3B2042 (scFv)
scFv: B1 scFv with K38R, M48I, Q182T, A183S, W187L
B13: CD3B2034 (scFv)
scFv: B1 scFv with A183S
B14: CD3B2039 (scFv)
scFv: B1 scFv with N61A, A183S
B15: CD3B2070 (scFv)
scFv: B1 scFv with K38R, Q182T, A183S, W187L
B16: CD3B2029 (scFv)
scFv: B1 scFv with M48I, A183S
B17: CD3B2038 (scFv)
scFv: B1 scFv with N61A, Q182T, W187L
B18: CD3B2067 (scFv)
scFv: B1 scFv with K38R, A183S, W187L
B19: CD3B2068 (scFv)
scFv: B1 scFv with K38R, W187L
B20: CD3B2033 (scFv)
scFv: B1 scFv with Q182T, W187L
B21: CD3B2062 (scFv)
scFv: B1 scFv with M48I, N61A, Q182T, A183S, W187L
B22: CD3B2074 (scFv)
scFv: B1 scFv with K38R, M48I, N61A, Q182T, A183S
B23: CD3B2061 (scFv)
scFv: B1 scFv with M48I, N61A, Q182T

biological target: T1, TRCW5 antigen (CD3δε-Fc-Avi) (biotinylated (site not stated)); experiment: ELISA after heat
T1 construct: also called recombinant CD3
T1 sequence (chain, as listed by the source mutant limits assumed): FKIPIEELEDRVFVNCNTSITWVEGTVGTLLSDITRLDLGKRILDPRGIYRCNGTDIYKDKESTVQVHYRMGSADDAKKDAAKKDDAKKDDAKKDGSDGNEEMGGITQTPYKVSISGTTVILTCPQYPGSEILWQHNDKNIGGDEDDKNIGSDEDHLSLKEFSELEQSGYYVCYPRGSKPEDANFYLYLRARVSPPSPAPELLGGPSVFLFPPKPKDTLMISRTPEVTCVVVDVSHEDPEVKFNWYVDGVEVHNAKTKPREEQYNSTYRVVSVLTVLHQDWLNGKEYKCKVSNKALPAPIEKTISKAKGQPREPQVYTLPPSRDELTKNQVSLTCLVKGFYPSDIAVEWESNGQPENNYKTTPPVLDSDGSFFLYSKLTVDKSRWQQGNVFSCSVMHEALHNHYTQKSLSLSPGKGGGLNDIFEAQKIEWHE

Binder	% Retained 55° C. [%]	% Retained 60° C. [%]	% Retained 65° C. [%]
B1	110	112	47
B2	108	104	36
B3	104	97	16
B4	109	109	11
B5	103	87	6
B6	104	84	4
B7	108	91	9
B8	102	103	23
B9	107	100	21
B10	100	82	7
B11	100	88	4
B12	96	83	2
B13	103	103	38
B14	111	103	44
B15	107	82	6
B16	100	97	29
B17	105	98	22
B18	98	63	5
B19	103	88	10
B20	100	84	11
B21	110	102	14
B22	104	101	6
B23	116	107	9

biological target: T2, CD3 on primary human pan T cells (human, UniProt P07766 23-207); experiment: flow cytometry, pan T-cells
T2 construct: on cells it stands in the TCR/CD3 complex; also called Pan T-cells (CD3-positive); endogenous CD3
T2 sequence (P07766 23-207 limits assumed): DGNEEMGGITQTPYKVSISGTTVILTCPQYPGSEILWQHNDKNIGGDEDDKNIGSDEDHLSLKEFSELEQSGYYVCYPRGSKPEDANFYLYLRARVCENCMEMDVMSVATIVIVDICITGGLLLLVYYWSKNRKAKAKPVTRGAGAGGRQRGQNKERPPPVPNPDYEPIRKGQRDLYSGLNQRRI
Experimental: ELISA assays for binding to recombinant CD3 (TRCW5, SEQ ID NO: 39) were performed as above. Cell binding was performed using primary human T cell and Jurkat cells by flow cytometry. Briefly, E. coli expressed anti CD3 ScFv supernatants, either at room temperature, or 55° C., 60° C. or 65° C. heat treated samples.
Pan T-cells (CD3-positive) and Jurkat-CD3-negative cells were prepared by staining Jurkat-CD3-negative cells with CFSE while keeping pan T-cells unstained. Jurkat-CD3-negative cell suspensions were resuspended at 20 million cells per each 50 mL conical tube. Cells were harvested by centrifugation at 400×g for 5 minutes and resuspended in DPBS followed by washing 2× in DPBS. Cells were stained with 1:25,000 dilution for a final dye concentration of 0.02 uM CFSE (2 uL of staining solution to 50 mL of cell suspension). Cells were incubated for 10 minutes at room temperature and centrifuged for 5 minutes at 400×g. After removal of supernatant, 3 mL of HI-FBS were added to the cell pellet, mixed and centrifuged for 5 min at 400×g. Supernatant was removed and cells were resuspended in BD stain buffer at 2×10\hat{ }6 cells/mL and incubated on ice or 4 C protected from light. Human pan T cells were thawed at 37 C and transferred gently into a conical tube containing 15 mL of warm or RT culture media (RPMI+10% FBS). […] Cells were harvested by centrifugation at 400×g for 5 min and resuspended in culture media (RPMI+10% HI-FBS). Pan T-cells (without staining) were prepared at 2×10\hat{ }6 cells/mL in flow staining buffer. Equal volumes of CFSE stained Jurkat-CD3-negative cells and unstained T-cells (CD3-positive) cells were mixed and plated 50 uL/well into assay plates. 50 uL/well neat bacterial supernatant samples and control sample (CD3W36 ScFv) were added to each well and plates were incubated 1 hr at 4 C or. Cells were harvested by centrifugation at 400×g for 4 min and 150 uL staining buffer were added to all wells, followed by centrifugation at 400×g for 4 min to pellet cells. To each well, 150 uL staining buffer were added followed by centrifugation at 400×g for 4 minutes to pellet cells.

Binder	% Binding retained on T-cells, 55° C. [fraction]	% Binding retained on T-cells, 60° C. [fraction]	% Binding retained on T-cells, 65° C. [fraction]	% Binding retained on T-cells, RT [fraction]
B1	1.06	1.14	0.455	1
B2	1.12	1.2	0.543	1
B3	1.06	1.11	0.447	1
B8	1.07	0.986	0.061	1
B11	0.991	0.906	0.0805	1
B12	0.993	0.935	0.0842	1
B13	0.866	0.784	0.387	1
B14	1.3	1	0.609	1
B16	1.06	1.08	0.329	1
B17	1.03	1.1	0.279	1
B20	1.07	1	0.295	1
